Reference: patent US7071301

What was measured:
Test in all cases: cell-based or functional assay
[1] = target: Chimera II (mouse-human chimeric receptor, last part from ERR) (human; mouse)
[2] = target: ERR Mutant 6 (mouse) (UniProt Q09143)
[3] = target: Chimera I (mouse-human chimeric receptor, first part from ERR) (mouse; human)
[4] = target: ERR Mutant 11 (mouse) (UniProt Q09143)
[5] = target: ERR Mutant 9 (mouse) (UniProt Q09143)
[6] = target: ERR Mutant 7 (mouse) (UniProt Q09143)
[7] = target: ERR Mutant 4 (mouse) (UniProt Q09143)
[8] = target: ERR Mutant 10 (mouse) (UniProt Q09143)
[9] = target: human H13 (human) (UniProt P30825)
[10] = target: ERR Mutant 3 (mouse) (UniProt Q09143)
[11] = target: Chimera III (H13 with NcoI-NcoI fragment from ERR) (human / mouse)
[12] = target: ERR Mutant 2 (mouse) (UniProt Q09143)
[13] = target: ERR Mutant 5 (mouse) (UniProt Q09143)
[14] = target: ERR Mutant 8 (mouse) (UniProt Q09143)
[15] = target: murine ecotropic retroviral receptor (ERR) (mouse) (UniProt Q09143)
[16] = target: ERR Mutant 1 (mouse) (UniProt Q09143)

Chain of UniProt P30825 (P30825 other isoform, or with tags, fused parts or gaps): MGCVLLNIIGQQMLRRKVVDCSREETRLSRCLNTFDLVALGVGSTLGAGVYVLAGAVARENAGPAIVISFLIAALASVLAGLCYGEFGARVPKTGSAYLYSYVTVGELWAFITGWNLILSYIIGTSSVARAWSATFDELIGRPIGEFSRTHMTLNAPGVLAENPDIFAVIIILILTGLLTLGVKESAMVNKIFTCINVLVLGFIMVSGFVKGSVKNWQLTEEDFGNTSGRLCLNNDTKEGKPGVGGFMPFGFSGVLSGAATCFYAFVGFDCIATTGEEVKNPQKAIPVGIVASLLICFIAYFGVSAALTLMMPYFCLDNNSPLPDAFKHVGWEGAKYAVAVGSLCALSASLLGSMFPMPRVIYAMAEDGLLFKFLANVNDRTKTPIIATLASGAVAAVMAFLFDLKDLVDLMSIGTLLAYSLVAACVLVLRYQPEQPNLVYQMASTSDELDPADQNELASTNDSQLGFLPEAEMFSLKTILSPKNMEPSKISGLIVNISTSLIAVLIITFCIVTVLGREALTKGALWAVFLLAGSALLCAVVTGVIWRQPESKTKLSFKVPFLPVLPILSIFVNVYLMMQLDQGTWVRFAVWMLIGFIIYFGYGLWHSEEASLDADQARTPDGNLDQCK

Question: Which results are given for “recombinant MuLV-E, ψCRE/BAG virions (from UniProt P03385 34-469)”?
Answer: numbers of G418-resistant colonies [1]: 0 colonies; colonies [2]: 500 colonies; numbers of G418-resistant colonies [3]: 1000 colonies; colonies [4]: 500 colonies; colonies [5]: 500 colonies; colonies [6]: 0 colonies; colonies [7]: 500 colonies; colonies [8]: 500 colonies; numbers of G418-resistant colonies [9]: 0 colonies; colonies [10]: 500 colonies; numbers of G418-resistant colonies [11]: 1000 colonies; colonies [12]: 500 colonies; colonies [13]: 500 colonies; colonies [14]: 500 colonies; numbers of G418-resistant colonies [15]: > 1000 colonies; colonies [16]: 500 colonies
